{"source": "paper PMC8540780", "about": "“Biochemical and Molecular Characterization of the Rice Chalcone Isomerase Family” (Plants, 2021)", "key": {"purified protein [1]": {"substrate": "O=C(/C=C/c1ccc(O)cc1)c1c(O)cc(O)cc1O", "experiment": "purified protein", "assay_type": "biochemical, Oryza sativa", "details": "50 mM Tris pH 7.5, 0.1 µg enzyme per mL, substrate 1–50 µM"}, "purified protein [2]": {"substrate": "O=C(/C=C/c1ccc(O)cc1)c1ccc(O)cc1O", "experiment": "purified protein", "details": "50 mM Tris pH 7.5, 500 µg enzyme (b24 prints 440 µg/mL for the activity test), substrate 1–50 µM"}}, "data": [{"protein": "OsCHI3 (Oryza sativa Japonica Group) (protein, 233 aa; 28 kDa on SDS-PAGE) MAAVSEVEVDGVVFPPVARPPGSGHAHFLAGAGVRGVEIAGNFIKFTAIGVYLEEGAAVPALAKKWAGKSADELAADAAFFRDVVTGDFEKFTRVTMILPLTGEQYSDKVTENCVAAWKAAGVYTDAEGAAADKFKEAFKPHSFPPGASILFTHSPPGVLTVAFSKDSSVPEGAVAAAAIENRALCEAVLDSIIGEHGVSPAAKRSIAARVSQLLKAESTGDVAAAEPAPVSA", "values": [{"measurement": "Km", "setting": "purified protein [1]", "value": "11.60 ± 0.78", "unit": "µM"}, {"measurement": "Vmax", "setting": "purified protein [1]", "value": 160, "unit": "µmol/min/mg"}, {"measurement": "kcat", "setting": "purified protein [1]", "value": 69.3, "unit": "s⁻¹"}, {"measurement": "kcat/Km", "setting": "purified protein [1]", "value": "5.98e+06", "unit": "M⁻¹ s⁻¹"}, {"measurement": "Km", "setting": "purified protein [2]", "value": "50.95 ± 4.83", "unit": "µM"}, {"measurement": "Vmax", "setting": "purified protein [2]", "value": 0.000212, "unit": "µmol/min/mg"}, {"measurement": "kcat", "setting": "purified protein [2]", "value": "9.21e-05", "unit": "s⁻¹"}, {"measurement": "kcat/Km", "setting": "purified protein [2]", "value": 1.81, "unit": "M⁻¹ s⁻¹"}]}]}
